Tested on: peptide library, one residue held at a place counted from the S/T acceptor
Assay: relative phosphorylation of the sub-library (ratio to the mean residue at this position); Pediculus humanus corporis; higher = residue favoured
Outline: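 Relative sub-library phosphorylation, a ratio to the mean residue at that position, was obtained by phosphorimaging and densitometry of spots on streptavidin membranes. Before capture, purified recombinant kinases were incubated for 90 min under kinase-specific conditions with 50 μM biotinylated degenerate peptide sub-libraries and 50 μM ATP spiked with γ-32P-ATP. Each sub-library fixed one residue at one position around a central Ser/Thr.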

PINK1, construct: aa126-end, sequence (E0W1I1 126-575, looked up): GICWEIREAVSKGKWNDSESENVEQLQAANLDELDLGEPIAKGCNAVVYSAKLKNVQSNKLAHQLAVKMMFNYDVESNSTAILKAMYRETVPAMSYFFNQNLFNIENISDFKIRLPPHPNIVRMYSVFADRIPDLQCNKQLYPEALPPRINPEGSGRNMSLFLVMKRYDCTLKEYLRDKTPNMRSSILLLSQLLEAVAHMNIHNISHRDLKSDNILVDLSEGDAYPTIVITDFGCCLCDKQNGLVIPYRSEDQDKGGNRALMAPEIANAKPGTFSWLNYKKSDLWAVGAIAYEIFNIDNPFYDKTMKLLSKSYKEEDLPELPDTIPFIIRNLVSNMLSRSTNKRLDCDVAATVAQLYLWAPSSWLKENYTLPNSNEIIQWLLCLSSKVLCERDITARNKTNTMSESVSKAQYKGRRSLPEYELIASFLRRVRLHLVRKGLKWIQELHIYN

## PINK1, construct: aa126-end (from UniProt E0W1I1)
A fixed, at +1
  relative phosphorylation: 0.566
A fixed, at +2
  relative phosphorylation: 1.09
A fixed, at +3
  relative phosphorylation: 0.757
A fixed, at +4
  relative phosphorylation: 0.761
A fixed, at -1
  relative phosphorylation: 1.01
A fixed, at -2
  relative phosphorylation: 0.871
A fixed, at -3
  relative phosphorylation: 0.867
A fixed, at -4
  relative phosphorylation: 0.921
A fixed, at -5
  relative phosphorylation: 1.04
D fixed, at +1
  relative phosphorylation: 0.454
D fixed, at +2
  relative phosphorylation: 0.704
D fixed, at +3
  relative phosphorylation: 0.585
D fixed, at +4
  relative phosphorylation: 0.547
D fixed, at -1
  relative phosphorylation: 0.982
D fixed, at -2
  relative phosphorylation: 0.416
D fixed, at -3
  relative phosphorylation: 1.11
D fixed, at -4
  relative phosphorylation: 1.49
D fixed, at -5
  relative phosphorylation: 1.67
E fixed, at +1
  relative phosphorylation: 0.292
E fixed, at +2
  relative phosphorylation: 0.655
E fixed, at +3
  relative phosphorylation: 0.509
E fixed, at +4
  relative phosphorylation: 0.54
E fixed, at -1
  relative phosphorylation: 1.22
E fixed, at -2
  relative phosphorylation: 0.781
E fixed, at -3
  relative phosphorylation: 0.81
E fixed, at -4
  relative phosphorylation: 1.81
E fixed, at -5
  relative phosphorylation: 1.48
F fixed, at +1
  relative phosphorylation: 0.496
F fixed, at +2
  relative phosphorylation: 1.06
F fixed, at +3
  relative phosphorylation: 1.11
F fixed, at +4
  relative phosphorylation: 0.954
F fixed, at -1
  relative phosphorylation: 0.612
F fixed, at -2
  relative phosphorylation: 1.25
F fixed, at -3
  relative phosphorylation: 1.43
F fixed, at -4
  relative phosphorylation: 1.01
F fixed, at -5
  relative phosphorylation: 1.21
G fixed, at +1
  relative phosphorylation: 1.94
G fixed, at +2
  relative phosphorylation: 0.875
G fixed, at +3
  relative phosphorylation: 0.873
G fixed, at +4
  relative phosphorylation: 1.02
G fixed, at -1
  relative phosphorylation: 0.812
G fixed, at -2
  relative phosphorylation: 0.416
G fixed, at -3
  relative phosphorylation: 0.579
G fixed, at -4
  relative phosphorylation: 0.946
G fixed, at -5
  relative phosphorylation: 0.806
H fixed, at +1
  relative phosphorylation: 0.954
H fixed, at +2
  relative phosphorylation: 1.11
H fixed, at +3
  relative phosphorylation: 1.15
H fixed, at +4
  relative phosphorylation: 1.04
H fixed, at -1
  relative phosphorylation: 0.945
H fixed, at -2
  relative phosphorylation: 0.84
H fixed, at -3
  relative phosphorylation: 0.964
H fixed, at -4
  relative phosphorylation: 1.25
H fixed, at -5
  relative phosphorylation: 1.09
I fixed, at +1
  relative phosphorylation: 0.55
I fixed, at +2
  relative phosphorylation: 0.712
I fixed, at +3
  relative phosphorylation: 0.657
I fixed, at +4
  relative phosphorylation: 0.789
I fixed, at -1
  relative phosphorylation: 0.604
I fixed, at -2
  relative phosphorylation: 1.55
I fixed, at -3
  relative phosphorylation: 0.774
I fixed, at -4
  relative phosphorylation: 0.696
I fixed, at -5
  relative phosphorylation: 0.863
K fixed, at +1
  relative phosphorylation: 1.59
K fixed, at +2
  relative phosphorylation: 1
K fixed, at +3
  relative phosphorylation: 1.41
K fixed, at +4
  relative phosphorylation: 1.4
K fixed, at -1
  relative phosphorylation: 0.952
K fixed, at -2
  relative phosphorylation: 0.828
K fixed, at -3
  relative phosphorylation: 0.387
K fixed, at -4
  relative phosphorylation: 0.596
K fixed, at -5
  relative phosphorylation: 0.754
L fixed, at +1
  relative phosphorylation: 0.517
L fixed, at +2
  relative phosphorylation: 0.76
L fixed, at +3
  relative phosphorylation: 0.676
L fixed, at +4
  relative phosphorylation: 0.802
L fixed, at -1
  relative phosphorylation: 1.14
L fixed, at -2
  relative phosphorylation: 0.907
L fixed, at -3
  relative phosphorylation: 2.14
L fixed, at -4
  relative phosphorylation: 0.739
L fixed, at -5
  relative phosphorylation: 0.889
M fixed, at +1
  relative phosphorylation: 0.626
M fixed, at +2
  relative phosphorylation: 0.982
M fixed, at +3
  relative phosphorylation: 0.832
M fixed, at +4
  relative phosphorylation: 0.902
M fixed, at -1
  relative phosphorylation: 1.23
M fixed, at -2
  relative phosphorylation: 2.75
M fixed, at -3
  relative phosphorylation: 1.57
M fixed, at -4
  relative phosphorylation: 0.804
M fixed, at -5
  relative phosphorylation: 0.923
N fixed, at +1
  relative phosphorylation: 2.33
N fixed, at +2
  relative phosphorylation: 1.02
N fixed, at +3
  relative phosphorylation: 1.17
N fixed, at +4
  relative phosphorylation: 0.858
N fixed, at -1
  relative phosphorylation: 1.52
N fixed, at -2
  relative phosphorylation: 0.589
N fixed, at -3
  relative phosphorylation: 0.694
N fixed, at -4
  relative phosphorylation: 1.18
N fixed, at -5
  relative phosphorylation: 0.888
P fixed, at +1
  relative phosphorylation: 2.36
P fixed, at +2
  relative phosphorylation: 1.41
P fixed, at +3
  relative phosphorylation: 1.06
P fixed, at +4
  relative phosphorylation: 1.08
P fixed, at -1
  relative phosphorylation: 0.419
P fixed, at -2
  relative phosphorylation: 0.316
P fixed, at -3
  relative phosphorylation: 0.429
P fixed, at -4
  relative phosphorylation: 0.63
P fixed, at -5
  relative phosphorylation: 0.878
Q fixed, at +1
  relative phosphorylation: 0.786
Q fixed, at +2
  relative phosphorylation: 1
Q fixed, at +3
  relative phosphorylation: 0.957
Q fixed, at +4
  relative phosphorylation: 0.983
Q fixed, at -1
  relative phosphorylation: 1.72
Q fixed, at -2
  relative phosphorylation: 1.06
Q fixed, at -3
  relative phosphorylation: 0.609
Q fixed, at -4
  relative phosphorylation: 0.831
Q fixed, at -5
  relative phosphorylation: 0.733
R fixed, at +1
  relative phosphorylation: 2.05
R fixed, at +2
  relative phosphorylation: 1.57
R fixed, at +3
  relative phosphorylation: 2.21
R fixed, at +4
  relative phosphorylation: 2.15
R fixed, at -1
  relative phosphorylation: 1.58
R fixed, at -2
  relative phosphorylation: 1.02
R fixed, at -3
  relative phosphorylation: 0.815
R fixed, at -4
  relative phosphorylation: 0.676
R fixed, at -5
  relative phosphorylation: 0.75
V fixed, at +1
  relative phosphorylation: 0.474
V fixed, at +2
  relative phosphorylation: 0.805
V fixed, at +3
  relative phosphorylation: 0.737
V fixed, at +4
  relative phosphorylation: 0.692
V fixed, at -1
  relative phosphorylation: 0.716
V fixed, at -2
  relative phosphorylation: 0.838
V fixed, at -3
  relative phosphorylation: 0.441
V fixed, at -4
  relative phosphorylation: 0.595
V fixed, at -5
  relative phosphorylation: 0.806
W fixed, at +1
  relative phosphorylation: 0.455
W fixed, at +2
  relative phosphorylation: 1.03
W fixed, at +3
  relative phosphorylation: 1.14
W fixed, at +4
  relative phosphorylation: 1.47
W fixed, at -1
  relative phosphorylation: 0.772
W fixed, at -2
  relative phosphorylation: 1.55
W fixed, at -3
  relative phosphorylation: 1.74
W fixed, at -4
  relative phosphorylation: 1.48
W fixed, at -5
  relative phosphorylation: 1.17
Y fixed, at +1
  relative phosphorylation: 0.548
Y fixed, at +2
  relative phosphorylation: 1.2
Y fixed, at +3
  relative phosphorylation: 1.17
Y fixed, at +4
  relative phosphorylation: 1.01
Y fixed, at -1
  relative phosphorylation: 0.775
Y fixed, at -2
  relative phosphorylation: 1.03
Y fixed, at -3
  relative phosphorylation: 1.65
Y fixed, at -4
  relative phosphorylation: 1.35
Y fixed, at -5
  relative phosphorylation: 1.04
pThr fixed, at +1
  relative phosphorylation: 0.442
pThr fixed, at +2
  relative phosphorylation: 0.775
pThr fixed, at +3
  relative phosphorylation: 0.7
pThr fixed, at +4
  relative phosphorylation: 0.556
pThr fixed, at -1
  relative phosphorylation: 0.306
pThr fixed, at -2
  relative phosphorylation: 0.5
pThr fixed, at -3
  relative phosphorylation: 0.537
pThr fixed, at -4
  relative phosphorylation: 1.01
pThr fixed, at -5
  relative phosphorylation: 1.67
pTyr fixed, at +1
  relative phosphorylation: 0.458
pTyr fixed, at +2
  relative phosphorylation: 1.66
pTyr fixed, at +3
  relative phosphorylation: 0.834
pTyr fixed, at +4
  relative phosphorylation: 0.71
pTyr fixed, at -1
  relative phosphorylation: 1.09
pTyr fixed, at -2
  relative phosphorylation: 1.06
pTyr fixed, at -3
  relative phosphorylation: 3.15
pTyr fixed, at -4
  relative phosphorylation: 1.66
pTyr fixed, at -5
  relative phosphorylation: 1.26

Source: the supplement of paper PMC9876800
